Reference: paper PMC5725915

Target: human factor Xa (human)
Assay: prothrombinase activity titration

Chain of human factor Xa (human) (P00742 whole entry): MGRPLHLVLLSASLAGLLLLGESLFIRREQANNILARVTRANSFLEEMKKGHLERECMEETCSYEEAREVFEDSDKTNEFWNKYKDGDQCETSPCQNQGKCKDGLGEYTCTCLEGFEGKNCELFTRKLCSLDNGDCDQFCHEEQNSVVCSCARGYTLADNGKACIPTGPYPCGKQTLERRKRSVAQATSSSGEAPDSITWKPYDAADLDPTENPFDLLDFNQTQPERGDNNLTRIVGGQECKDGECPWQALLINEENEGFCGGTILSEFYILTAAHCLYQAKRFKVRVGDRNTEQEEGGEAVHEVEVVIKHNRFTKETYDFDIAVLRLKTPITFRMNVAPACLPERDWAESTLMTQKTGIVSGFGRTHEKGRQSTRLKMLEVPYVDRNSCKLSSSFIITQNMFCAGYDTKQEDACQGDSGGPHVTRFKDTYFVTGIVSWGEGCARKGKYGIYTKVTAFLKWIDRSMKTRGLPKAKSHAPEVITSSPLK

“wild-type recombinant human fV activated with thrombin (rhfVa^WT) (from UniProt P12259 29-737; P12259 1574-2224) (complex)” was tested, and the Kd was 0.48 nM.
